# B1: Lactoferrin (protein, UniProt P02788 20-710, looked up)
# Lactotransferrin: GRRRSVQWCAVSQPEATKCFQWQRNMRKVRGPPVSCIKRDSPIQCIQAIAENRADAVTLDGGFIYEAGLAPYKLRPVAAEVYGTERQPRTHYYAVAVVKKGGSFQLNELQGLKSCHTGLRRTAGWNVPIGTLRPFLNWTGPPEPIEAAVARFFSASCVPGADKGQFPNLCRLCAGTGENKCAFSSQEPYFSYSGAFKCLRDGAGDVAFIRESTVFEDLSDEAERDEYELLCPDNTRKPVDKFKDCHLARVPSHAVVARSVNGKEDAIWNLLRQAQEKFGKDKSPKFQLFGSPSGQKDLLFKDSAIGFSRVPPRIDSGLYLGSGYFTAIQNLRKSEEEVAARRARVVWCAVGEQELRKCNQWSGLSEGSVTCSSASTTEDCIALVLKGEADAMSLDGGYVYTAGKCGLVPVLAENYKSQQSSDPDPNCVDRPVEGYLAVAVVRRSDTSLTWNSVKGKKSCHTAVDRTAGWNIPMGLLFNQTGSCKFDEYFSQSCAPGSDPRSNLCALCIGDEQGENKCVPNSNERYYGYTGAFRCLAENAGDVAFVKDVTVLQNTDGNNNEAWAKDLKLADFALLCLDGKRKPVTEARSCHLAMAPNHAVVSRMDKVERLKQVLLHQQAKFGRNGSDCPDKFCLFQSETKNLLFNDNTECLARLHGKTTYEKYLGPQYVAGITNLKKCSTSPLLEACEFLRK
# Assays:
# [1] = system: melanogenic genes in melanocytes; test: Gene expression study (RNA sequencing) in PGE2-induced melanocytes; assay type: cell-based, human
# Experimental: (§1) Four cell types associated with pigmentation pathways-melanocytes, keratinocytes, fibroblasts and endothelial (HUVEC) cells-were analyzed for gene expression.
# (§2) To simulate the UV stimulatory pigmentation pathway process, melanocytes were pre-treated with PGE2, a normal direct consequence of UV light exposure usually emanating from exposed keratinocytes. After the 48 hour attachment culture, these melanocytes were induced with 10 uM PGE2 in melanocyte media for 24 hrs. The four primary human adult dermal cell lines were cultured and plated in well plates in triplicate and then treated with 11 different compound treatments (plus DMSO control). After 48 hours of attachment culture, the remaining fibroblasts, HUVECs and keratinocytes were treated with the test compounds listed in Table 6.
# (§3) After 24 hours of compound exposure, RNA lysate preparation was carried out and samples were shipped to MedGenome for RNA extraction, library construction and sequencing to 25M paired end 100 bp reads per sample. Library prep and sequencing was completed at MedGenome.
# melanogenic genes = test: Cell line melanogenic gene activity testing, overall conclusion; assay type: cell-based, human; conditions: conclusion over melanocytes, keratinocytes, HUVECs
# Experimental: as §1, §2, §3
# [2] = system: melanocytes (melanin production); test: In vitro melanocyte comparative analysis via absorbance readings (Example 4); assay type: cell-based; conditions: for Absorbance 405 nm / Absorbance 490 nm / Absorbance 492 nm: melanocyte lysates, 4 days
# Experimental: Melanocytes were cultured in 6-well plates containing growth media. Once confluent, 2 concentrations of each of the 10 compounds were added to the cells in triplicate wells for 4 days. There were a total of eleven 6-well plates, one for each compound treatment and one for the vehicle control. Absorbance readings were taken on the lysates prepared for each well of the 6-well plates, normalizing for cells counts. […] Additional validation was carried out using MSH addition to media to confirm increased stimulation of melanin production. The following compounds used in this study are seen in Table 7.
# [3] = system: PMEL, tyrosinase genes, MC1/4R, EDNRB, MITF, ERK1/2, JNK, AKT1; test: Gene expression studies of Example 5; assay type: cell-based
# Description: The methods similar to Examples 3-4 were used to measure expression of PMEL, tyrosinase genes, MC1/4R, EDNRB, MITF, ERK1/2, JNK, and ANKT1.
# FIGS. 10A-10D illustrates the expression of PMEL (FIG. 10A), Tyrosinase genes (FIG. 10B), MC1/4R (FIG. 10C), and EDNRB (FIG. 10D) after treatment of endothelial cells with lactoferrin (Lacto), peptide derived from lactoferrin (TCV), hexapeptide-12 (Hex12), tripeptide-1 and hexapeptide-12 (TriHex), hexapeptide-11 (Hex11), tranexamic acid (Tran acid) octapeptide (Octa), phosphatidylserine (phos), Cannabidiol (CBD), and all (total).
# MITF is regulated by phosphorylation. Specifically, the MAPK and Akt pathways are known to phosphorylate MITF at certain sites. FIGS. 12A-12C illustrate the expression of ERK1/2 (MAPK3/MAPK1) (FIG. 12A), JNK (FIG. 12B), AKT1 (FIG. 12C) after treatment of endothelial cells with lactoferrin (Lacto), peptide derived from lactoferrin (TCV), hexapeptide-12 (Hex12), tripeptide-1 and hexapeptide-12 (TriHex), hexapeptide-11 (Hex11), octapeptide (Octa), phosphatidylserine (phos), Cannabidiol (CBD), and all (total).
# [4] = system: hTERT-immortalized dermal melanocytes; test: Melanocyte assay, absorbance of lysate pellets (Example 6); assay type: cell-based, human; conditions: melanocyte lysate pellet, 5 days
# Experimental: hTERT-immortalized dermal melanocytes were treated with various compounds.
# Stocks of compounds 1 through 10 on the list below were suspended in either complete melanocyte growth media or DMSO (indicated in parentheses.) Each compound re-suspension was then diluted in melanocyte growth media to the final concentrations in Table 9.
# Lysates were prepared for each sample. Briefly, 6.6×10^5 cells from each sample was spun down and collected in a vial. 150 uL of CHAPS lysis buffer was added to each duplicate sample, vortexed and placed in a dry-ice/ethanol bath for 2 minutes, then left at room temp until completed thawed. This freeze thaw was done one more time, for a total of two freeze/thaw cycles. The lysate samples were spun for 15 minutes at 14,800 rpm. The supernatant was removed, leaving a black pellet in the vial. The pellet was re-suspended in 100 uL of a 1 M NaOH/10% DMSO solution and incubated at 80° C. for 90 minutes, pipet mixing at 30 minutes, 60 minutes and at 90 minutes.
# 100 uL of each duplicate sample at each concentration was added to individual wells of a flat bottom 96 well plate and absorbance readings were taken at 405 nm, 490 nm and 492 nm on the Envision 2103 Multilabel Reader.
# [5] = system: hTERT-immortalized dermal melanocytes; test: Melanocyte assay, daily inspection of morphology and survival (Example 6); conditions: both 500 and 1000 ug/mL
# Experimental: Melanocytes were initially plated in 6-well tissue culture plate (1.5×10^3 cells per well) in melanocyte growth media (Dermal Cell Basal Medium (ATCC® PCS-200-030 supplemented with Melanocyte Growth Kit (ATCC® PCS-200-041). Melanocytes were then expanded into 10 cm tissue culture plates at concentrations recommended by ATCC. The cells appear to fully adhere to the plate/dish while culturing with a webbed morphology. Cells were cultured at 37° C. 5% CO2 incubator.
# Once the melanocytes were 100% confluent in 6-well plates, the melanocyte growth media was removed and the melanocytes were treated with media containing the above compounds; duplicate wells for each compound/concentration listed above. The duplicate vehicle control wells were fed melanocyte growth media only or melanocyte growth media with DMSO (10 uL per 10 mL melanocyte growth media).
# The cells were fed the appropriate media for the next 5 days. Each day, the cells were inspected for morphology.
molecule,measurement,setting,value
B1,melanogenic activity (FIGS. 3A-3D),"[1]; melanocytes pre-treated with 10 uM PGE2, 24 hours of compound exposure",particularly dominant in melanogenic activity
same,"expression of melanogenic genes (FIG. 4, FIG. 5)","[1]; melanocytes, 24 hours of compound exposure",downregulation of melanogenic genes
same,effects on melanogenesis activity,melanogenic genes,significant effects on melanogenesis activity
same,Absorbance 405 nm,[2]; 500 ug/uL,0.509
same,Absorbance 490 nm,[2]; 500 ug/uL,0.334
same,Absorbance 492 nm,[2]; 500 ug/uL,0.217
same,Absorbance 405 nm,[2]; 1000 ug/uL,0.519
same,Absorbance 490 nm,[2]; 1000 ug/uL,0.312
same,Absorbance 492 nm,[2]; 1000 ug/uL,0.226
same,regulation of melanogenesis (decrease of absorption = decreased melanin formation),"[2]; melanocytes, Table 8",Regulation of melanogenesis was observed
same,"melanogenic activity (expression of PMEL, Tyrosinase genes, MC1/4R, EDNRB; FIGS. 10A-10D)",[3]; after treatment of endothelial cells,robust melanogenic activity
same,effects on melanogenic activity (kinase expression linked to decreased MITF expression),[3]; conclusion of Example 5,significant effects
same,Absorbance 405 nm,[4]; 500 ug/uL,0.509
same,Absorbance 490 nm,[4]; 500 ug/uL,0.334
same,Absorbance 492 nm,[4]; 500 ug/uL,0.217
same,Absorbance 405 nm,[4]; 1000 ug/uL,0.519
same,Absorbance 490 nm,[4]; 1000 ug/uL,0.312
same,Absorbance 492 nm,[4]; 1000 ug/uL,0.226
same,melanocyte morphology,[5]; 24 hour post-initial dosing,circular morphology
same,melanocyte morphology,"[5]; 48 hours post-initial dosing, maintained through the 5 day dosing period",returned to normal morphology
